Source: paper PMC5756609

Target: FcγR (on DIV 7 primary rat hippocampal cells, Erk phosphorylation assay)

ratio of pErk to Erk (western blot, percentage of vehicle controls) in DIV 7 hippocampal cell cultures exposed for 30 min to IgG-IC at 10 or 100 μg/ml; increased at 10 μg/ml but not at 100 μg/ml: 60.4
Substance: IgG immune complex (IgG-IC): pre-complexed mouse IgG and rat anti-mouse IgG, 1:1 ratio (w/w)
